Consider 15 molecules from article PMC10842001 (FEBS letters, 2023).

Bridges are numbered along the chain shown (N, C = ends). Where no end group is shown, it is not given here. [ ]: non-standard residue; d: D form. Trp(5-OH) = N[C@@H](Cc1c[nH]c2ccc(O)cc12)C(=O)O; Phe(4-NH2) = Nc1ccc(C[C@H](N)C(=O)O)cc1; βAla = NCCC(=O)O

In general, koff refers to a measure of how fast the partners let go of each other. Higher therefore signals a short-lived complex. Usually kon stands for the rate constant with which the complex forms. Lower therefore signals slow association. Usually Kd stands for the constant that tells how readily two partners part at equilibrium. The low end stands for a tighter complex, the high end for a looser complex.

Sequence of PSD-95 PDZ3cα protein (residues R309-S422) (UniProt P78352 309-422) (P78352 309-422): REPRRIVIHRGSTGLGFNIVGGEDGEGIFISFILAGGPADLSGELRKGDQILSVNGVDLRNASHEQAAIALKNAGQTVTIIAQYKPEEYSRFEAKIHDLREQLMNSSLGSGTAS

In one assay the test system is PDZ3cα fragment.
Experiment: not given
Conditions: ref [31]; cited from earlier work.
Take -YKQTSV [CRIPT linear PBM]: the “fold higher affinity for PDZ3cα fragment than for the isolated PDZ3 domain” value is on record as 21 fold.

Staying with this assay, now noted: relative to isolated PDZ domains; ref [10], [30]; cited from earlier work.
Consider -VQQTRV [SynGAP PBM], for which the “fold higher affinity to the longer PDZ3cα fragment” value is recorded as 15 fold.

The next assay addresses PSD-95 PDZ3cα protein (residues R309-S422) (UniProt P78352 309-422). The experiment in a line: SPR.
Conditions: not given
On to CKNYKKTEV (lactam 6-8 via βAla) [Cyclic peptide derived from CRIPT (peptide 6)], for which the koff came to 0.0291 s⁻¹ and the kon is 76000 M⁻¹ s⁻¹.
In the case of RRRRRRGSFPPWV[dQ]QTRV [D-Gln9 (peptide 18), SYNGAP peptide with d-Gln], the affinity, expressed as Kd, was 57.3 nM; the koff is 0.0182 s⁻¹; the kon came to 317000 M⁻¹ s⁻¹.
CGSFPPWVKKTEV (bridge 10-12; not fully specified (residue 10, bridges)) [Syn3* (peptide 4), active component peptide of Syn3 without the poly-arginine moiety] showed a koff of 0.0287 s⁻¹ and a kon of 439000 M⁻¹ s⁻¹.
In turn, RRRRRRGSFPP[Trp(5-OH)]VQQTRV [W7-OHW (peptide 13), SYNGAP peptide with 5-hydroxy-Trp in place of Trp7] showed a dissociation constant (Kd) of 446 nM, an off-rate constant (koff) of 0.0106 s⁻¹ and a kon of 24000 M⁻¹ s⁻¹.
In turn, RRRRRRGSFPPW[dV]QQTRV [D-Val8 (peptide 17), SYNGAP peptide with d-Val] showed a Kd of 20.9 nM, a koff of 0.0459 s⁻¹ and a kon of 2.19e+06 M⁻¹ s⁻¹.
In the case of GSFPPWVQ [αC binder (peptide 8), fragment of the SYNGAP peptide made up of only αC helix interacting residues], the dissociation constant (Kd) turned out to be 11100 nM, the koff was determined as 0.00592 s⁻¹ and the kon is 1000 M⁻¹ s⁻¹.
The matching figures for RRRRRRGSF[dP]PWVQQTRV [D-Pro4 (peptide 15), SYNGAP peptide with d-Pro at the first proline]: 6.1 nM, 0.0116 s⁻¹ and 1.88e+06 M⁻¹ s⁻¹.
On the same counts, the results for RRRRRRG[dS]FPPWVQQTRV [D-Ser3 (peptide 14), SYNGAP peptide with d-Ser] are 7.8 nM, 0.00493 s⁻¹ and 633000 M⁻¹ s⁻¹.
The matching figures for RRRRRRGS[Phe(4-NH2)]PPWVQQTRV [F4-NH2F (peptide 12), SYNGAP peptide with ζ-Amino-Phe in place of Phe4]: 67.8 nM, 0.0104 s⁻¹ and 153000 M⁻¹ s⁻¹.
Consider RRRRRRGSFP[dP]WVQQTRV [D-Pro5 (peptide 16), SYNGAP peptide with d-Pro at the second proline], for which the affinity, expressed as Kd, was 24.3 nM; the koff amounted to 0.0444 s⁻¹; the kon was found to be 1.83e+06 M⁻¹ s⁻¹.

The target of the next assay is PSD-95 PDZ3cα protein (residues R309-S422) (UniProt P78352). The assay can be described thus: SPR.
Sequence of PSD-95 PDZ3cα protein (residues R309-S422) (UniProt P78352) (P78352 309-422): as above
Conditions: not given
“F4H (peptide 11), SYNGAP peptide with the substitution F4H” gave a Kd of 121 nM, an off-rate (koff) of 0.0261 s⁻¹ and a kon of 216000 M⁻¹ s⁻¹.
“V8L (peptide 9), SYNGAP peptide with the substitution V8L”: the Kd was 58.4 nM and the koff worked out at 0.00381 s⁻¹.
The matching figures for “V8I (peptide 10), SYNGAP peptide with the substitution V8I”: 101 nM and 0.00294 s⁻¹.
